# In publication PMC3045595 (Nucleic Acids Research, 2010):
# Molecular target: the molecule itself
# Assay: SEC
protein,measurement,value
"human TYW5 (tRNA yW-synthesizing enzyme 5), wild type (enzyme) MAGQHLPVPRLEGVSREQFMQHLYPQRKPLVLEGIDLGPCTSKWTVDYLSQVGGKKEVKIHVAAVAQMDFISKNFVYRTLPFDQLVQRAAEEKHKEFFVSEDEKYYLRSLGEDPRKDVADIRKQFPLLKGDIKFPEFFKEEQFFSSVFRISSPGLQLWTHYDVMDNLLIQVTGKKRVVLFSPRDAQYLYLKGTKSEVLNIDNPDLAKYPLFSKARRYECSLEAGDVLFIPALWFHNVISEEFGVGVNIFWKHLPSECYDKTDTYGNKDPTAASRAAQILDRALKTLAELPEEYRDFYARRMVLHIQDKAYSKNSE",stoichiometry N,2
